What was measured:
[1] = target: ccDnaB-His (wild type); test: pull-down (Ni-conjugated magnetic beads), quantified from SDS-14% PAGE with Coomassie staining; details: sfTq2-DciA 850 nM, three independent reactions per legend, parent: est. 1.4, read off a plot
[2] = target: ccDnaB-His (wild type) (Caulobacter crescentus); test: SEC; ccDnaB-His alone on Superdex 200; 25 mM Tris-HCl pH 7.5, 300 mM NaCl, 20% glycerol, 0.1 mM ATP, 5 mM MgCl2; fractions by SDS-PAGE; hexamer
[3] = target: His-DciA 4A (UniProt A0A0H3C5R2 1-179, H98A;Q99A;Q102A;R106A); test: EMSA; 150 mM K-glutamate; EMSA: 20 mM Tris-HCl pH 7.5, 10 mM Mg acetate, 50 or 150 mM K-glutamate, 0.1 mg/ml BSA, 10% glycerol, 2 mM ATP, 12.5 nM DNA, 5 min on ice; M13 pull-down: Tris pH 7.5, 10 mM Mg acetate, 50 mM K-glutamate, 0.1 mM ATP, 0.1 mg/ml BSA, 30 C; details: protein: recombinant; tags: N-terminal His6; label: 5'-FAM
Sequence of His-DciA 4A (A0A0H3C5R2 entry or part of it H98A;Q99A;Q102A;R106A): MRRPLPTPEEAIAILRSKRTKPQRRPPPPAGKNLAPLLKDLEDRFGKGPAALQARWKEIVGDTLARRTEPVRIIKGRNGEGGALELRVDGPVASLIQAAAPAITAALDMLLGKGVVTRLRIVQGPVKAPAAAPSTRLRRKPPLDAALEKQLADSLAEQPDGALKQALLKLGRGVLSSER

[4] = target: His-DciA L119S (UniProt A0A0H3C5R2 1-179, L119S); test: as above; details: protein: recombinant; tags: N-terminal His6; label: 5'-FAM
Sequence of His-DciA L119S (A0A0H3C5R2 entry or part of it L119S | L119S L119S): as the sequence (A0A0H3C5R2 entry or part of it H98A;Q99A;Q102A;R106A) above, with A98H, A99Q, A102Q, A106R, L119S counted along it

[5] = target: T1, His-DciA WT (UniProt A0A0H3C5R2 1-179); test: as above; details: protein: recombinant; tags: N-terminal His6; label: 5'-FAM
T1 sequence (A0A0H3C5R2 entry or part of it): as the sequence (A0A0H3C5R2 entry or part of it H98A;Q99A;Q102A;R106A) above, with A98H, A99Q, A102Q, A106R counted along it

[6] = target: His-DciA 4A2S (UniProt A0A0H3C5R2 1-179, H98A;Q99A;Q102A;R106A;M109S;L110S); test: as above; details: protein: recombinant; tags: N-terminal His6; label: 5'-FAM
Sequence of His-DciA 4A2S (A0A0H3C5R2 entry or part of it H98A;Q99A;Q102A;R106A;M109S;L110S): as the sequence (A0A0H3C5R2 entry or part of it H98A;Q99A;Q102A;R106A) above, with M109S, L110S counted along it

[7] = target: T2, His-DciA R106A (UniProt A0A0H3C5R2 1-179, R106A); test: as above; details: protein: recombinant; tags: N-terminal His6; label: 5'-FAM
T2 sequence (A0A0H3C5R2 entry or part of it R106A | R106A R106A): as the sequence (A0A0H3C5R2 entry or part of it H98A;Q99A;Q102A;R106A) above, with A98H, A99Q, A102Q counted along it

[8] = target: His-DciA del1-45 (UniProt A0A0H3C5R2 46-179, del1-45); test: as above; details: protein: recombinant; tags: N-terminal His6; label: 5'-FAM
Sequence of His-DciA del1-45 (A0A0H3C5R2 entry or part of it del1-45): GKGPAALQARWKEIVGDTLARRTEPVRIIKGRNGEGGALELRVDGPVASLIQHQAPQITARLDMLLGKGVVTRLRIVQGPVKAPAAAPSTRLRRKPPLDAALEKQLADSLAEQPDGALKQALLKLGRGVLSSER

[9] = target: His-DciA R106A L119S (RL) (UniProt A0A0H3C5R2 1-179, R106A;L119S); test: as above; details: protein: recombinant; tags: N-terminal His6; label: 5'-FAM
Sequence of His-DciA R106A L119S (RL) (A0A0H3C5R2 entry or part of it R106A;L119S | R106A L119S R106A L119S): as the sequence (A0A0H3C5R2 entry or part of it H98A;Q99A;Q102A;R106A) above, with A98H, A99Q, A102Q, L119S counted along it

[10] = target: T1, His-DciA WT; test: EMSA; 50 mM K-glutamate; EMSA: 20 mM Tris-HCl pH 7.5, 10 mM Mg acetate, 50 or 150 mM K-glutamate, 0.1 mg/ml BSA, 10% glycerol, 2 mM ATP, 12.5 nM DNA, 5 min on ice; M13 pull-down: Tris pH 7.5, 10 mM Mg acetate, 50 mM K-glutamate, 0.1 mM ATP, 0.1 mg/ml BSA, 30 C; details: protein: recombinant; tags: N-terminal His6; label: 5'-FAM
[11] = target: T2, His-DciA R106A; test: as above; details: protein: recombinant; tags: N-terminal His6; label: 5'-FAM

Row | stoichiometry N [2] | Molecule | response [1] [AU] | Kd [3] [nM] | Kd [4] [nM] | Kd [5] [nM] | Kd [6] [nM] | Kd [7] [nM] | Kd [8] [nM] | Kd [9] [nM] | Kd [10] [nM] | Kd [11] [nM]
1 | – | superfolder mTurquoise2 fluorescent protein-tagged DciA (sfTq2-DciA), wild type R106A | 1.2 | – | – | – | – | – | – | – | – | –
2 | 6 | ccDnaB-His (wild type) (enzyme) | – | – | – | – | – | – | – | – | – | –
3 | – | 80-mer oligo 1790 (ssDNA) DNA: TCCTTGTTATCCACAGGGCAGTTTTTTTTTTTTTTTTTTTTTTTTTTTTTTTTTTTTTTTTGTGCGATATAGTTCTCCGA | – | 115 ± 40.3 | 115 ± 40.3 | 25.4 ± 8.4 | 115 ± 40.3 | 115 ± 40.3 | 115 ± 40.3 | 115 ± 40.3 | 49.7 ± 24.4 | 152 ± 75.4
4 | – | TTTTTTTTTTTTTTTTTTTTTTTTTTTTTTTTTTT (ssDNA) [35-mer oligo 2201] | – | – | – | 109 ± 21 | – | 543 ± 9.95 | 520 ± 30.6 | 665 ± 47.9 | 19.6 ± 7.03 | 35.7 ± 17.6
